According to patent US10358663B2, “Method of production of 2,4-dihydroxybutyric acid” (ADISSEO FRANCE S.A.S., priority 2010, dated 2019):
Positions count from the first letter of the chain named. Numbers in names are those of the source.

What was measured:
Assay type in all cases: biochemical
[1] = Test for malate semialdehyde reductase activity; conditions: for Activity on malate semialdehyde (cofactor NADPH): 0.24 mM NADPH
Procedure: Test for Malate Semialdehyde Reductase Activity: Reaction: (L)-Malate semialdehyde+NAD(P)H→(L)-2,4-dihydroxybutyric acid+NAD(P)
The assay mixture contained 200 mM Hepes (pH 7.5), 50 mM KCl, 5 mM MgCl2, 0.24 mM NADH or NADPH, and appropriate amounts of purified enzyme. Reactions were started by adding 10 mM (L)-malate semialdehyde (malate semialdehyde was prepared freshly for each test, see Example 4). Enzymatic assays were carried out at 30° C. in 96-well flat bottomed microtiter plates in a final volume of 250 μL. The reactions were followed by the characteristic absorption of NAD(P)H at 340 nm in a microplate reader (BioRad 680XR).

[2] = Malate semialdehyde dehydrogenase activity, reverse biosynthetic direction, NADP reduction
Procedure: (§1) Enzymatic assay: Aspartate or malate semialdehyde dehydrogenase activities were assayed in the reverse biosynthetic direction by following the reduction of NADP during the oxidation of aspartate or malate semialdehyde to 4-phospho-(L)-aspartate or 4-phospho-(L)-malate, respectively (Roberts et al., 2003). (L)-aspartate semialdehyde (or (L)-malate semialdehyde)+NADP+Pi→4-phospho-(L)-aspartate (or 4-phospho-(L)-malate)+NADPH
(§2) The assay mixture contained 200 mM Hepes (pH 9), 50 mM K2HPO4, 0.25 mM NADP. Reactions were started by adding (L)-aspartate semialdehyde or (L)-malate semialdehyde. (L)-Aspartate semialdehyde was added in the form of L-aspartic acid β-semialdehyde hydrate trifluoroacetate (maintained at pH3 to prevent degradation) which is a suitable substrate for enzymatic tests of homoserine dehydrogenase and aspartate semialdehyde dehysrogenase (Roberts et al., 2003). Unstable malate semialdehyde was produced freshly prior to the enzymatic tests by the deprotection of the stable malate semialdehyde derivative 2-[(4S)-2,2-dimethyl-5-oxo-1,3-dioxolan-4-yl]acetaldehyde (DMODA). […]
(§3) Enzymatic assays were carried out in 96-well flat bottomed microtiter plates in a final volume of 250 μL at 30° C. The reactions were followed by the characteristic absorption of NADPH at 340 nm in a microplate reader (BioRad 680XR).

[3] = Aspartate semialdehyde dehydrogenase activity, reverse biosynthetic direction, NADP reduction; conditions: His-tagged enzyme, pH 9, 30° C.
Procedure: as §1, §2, §3

[4] = Aspartate kinase activity, ADP production coupled to NADH oxidation; conditions: purified enzyme, 30° C., pH 7.5
Procedure: Enzymatic assay: Aspartate or malate kinase activities were assayed by coupling ADP production in the kinase reactions to NADH oxidation in the presence of phosphoenolpyruvate, pyruvate kinase, and lactate dehydrogenase.
Aspartate (or Malate) Kinase aspartate (or malate)+ATP→4-phospho-(L)-aspartate (or 4-phospho-(L)-malate)+ADP
Pyruvate Kinase ADP+phosphoenolpyruvate→ATP+pyruvate
Lactate Dehydrogenase pyruvate+NADH→NAD^++lactate
The assay mixture contained 50 mM Hepes (pH 7.5), 50 mM KCl, 5 mM MgCl2, 0.24 mM NADH, 0.96 mM ATP, 0.96 mM PEP, 9 μg/mL of lactate dehydrogenase (Sigma, L2500), 12.4 μg/mL pyruvate kinase (Sigma, P1506), and appropriate amounts of purified aspartate (malate) kinase. Reactions were started by adding 50 mM (L)-aspartate or (L)-malate. Enzymatic assays were carried out at 30° C. in 96-well flat bottomed microtiter plates in a final volume of 250 μL. The reactions were followed by the characteristic absorption of NADH at 340 nm in a microplate reader (BioRad 680XR).
Maximum activities for LysC and Hom3 on aspartate were 4.5 μmol/(min*mgprot) and 1.6 μmol/(min*mgprot), respectively. The Km value for aspartate was estimated with the method of Eadie and Hofstee by measuring initial reaction rates (v) at different substrate concentrations (c) and by extracting the slope of the v versus v/c plot. […]

[5] = Hydroxamate assay to verify phosphorylation of the substrate; conditions: 10 mM malate, 10 mM ATP, 30 min
Procedure: Hydroxamate assay: To verify phosphorylation of the substrate, i.e. formation of an acylphosphate anhydride, by wild-type or mutated aspartate kinases, the product of the kinase reaction was incubated with hydroxylamine to form the corresponding aspartate or malate hydroxamate derivative. The assay mixture contained 120 mM Hepes (pH 8), 200 mM KCl, 10 mM ATP, 200 mM hydroxylamine, 10 mM aspartate or malate, and appropriate amount of purified protein. The reaction was stopped after 30 min by addition of an equal volume of 1.7% (w/v) FeCl3 in 1 M hydrochloric acid. Formation of the hydroxamate-iron complex was verified by measuring its characteristic absorbance at 540 nm in a microtiter plate reader. Assay mixtures containing all components except for ATP were used as a blank.

[6] = 10 mM (L)-malate semialdehyde, 30° C.

B1: H39R N43H (SEQ ID NO: 81): M. sedula succinic semialdehyde reductase double mutant H39R N43H (protein, listed as Metallosphaera sedula)
chain: MKAAVLHTYKEPLSIEDVNISQPKAGEVKIKVKATGLCRSDVHVFEGKTPVPPPVVAGHEISGIVEEVGPGVTRVKPGDRVISAFIHPCGKCGNCVAGKENLCETFSQVRLKGVMPDGTSRLSKDGKEIRTFLGGGFAEYAIVGENALTRVPEDMDLEKVAVLGCAGLTGYGAISSSKIEPGDTVAVIGVGGVGLSTIQLLRASGAGRIIAVGTKKWKLDRAMELGATDVVNSKEIDPVKAIKEITGGGPQVVIEAGGNEDTIHMALDSVRIGGKVVLVGLPPATAMIPIRVASIVRGGIEVVGNYGGRPRVDMPKLLELVRQGRYDPSRLVTGRFRLEEINEAVKMLEEGEAIRSLIIP
- Affinity for malate semialdehyde compared to the wild type enzyme [1]: improved affinity

B2: Ms-SSR: succinic semialdehyde reductase from Metallosphaera sedula, wild type (protein, listed as Metallosphaera sedula)
chain: B1 chain with R39H, H43N
- Activity on malate semialdehyde (cofactor NADH) ([1]; 10 mM (L)-malate semialdehyde, 0.24 mM NADH, 30° C.): 4.9 μmol/(min*mg_prot)
- Activity on malate semialdehyde (cofactor NADPH) [1, 6]: 4.9 μmol/(min*mg_prot)

B3: Asd: wild-type aspartate semialdehyde dehydrogenase of E. coli, His-tagged (protein, listed as Escherichia coli)
chain: MKNVGFIGWRGMVGSVLMQRMVEERDFDAIRPVFFSTSQLGQAAPSFGGTTGTLQDAFDLEALKALDIIVTCQGGDYTNEIYPKLRESGWQGYWIDAASSLRMKDDAIIILDPVNQDVITDGLNNGIRTFVGGNCTVSLMLMSLGGLFANDLVDWVSVATYQAASGGGARHMRELLTQMGHLYGHVADELATPSSAILDIERKVTTLTRSGELPVDNFGVPLAGSLIPWIDKQLDNGQSREEWKGQAETNKILNTSSVIPVDGLCVRVGALRCHSQAFTIKLKKDVSIPTVEELLAAHNPWAKVVPNDREITMRELTPAAVTGTLTTPVGRLRKLNMGPEFLSAFTVGDQLLWGAAEPLRRMLRQLA
modifications: His tag
notes: wild-type aspartate semialdehyde dehydrogenase of E. coli, His-tagged
- Activity on (L)-malate semialdehyde ([2]; His-tagged enzyme, pH 9, 30° C.): 0.01 μmol/(min*mgprot)
- Maximum specific activity, oxidation of (L)-aspartate semialdehyde to 4-phospho-(L)-aspartate [3]: 160 μmol/(min*mgprot)

B4: Asd E241Q T136N: double mutant of E. coli aspartate semialdehyde dehydrogenase Asd (protein, listed as Escherichia coli)
chain: B3 chain with T136N, E241Q
- Maximum specific activity ([2]; substrate not given, Example 5 tests malate semialdehyde dehydrogenase activity): 0.25 μmol/(min*mgprot)

B5: Hom3: wild-type aspartate kinase of Saccharomyces cerevisiae encoded by HOM3 (protein, listed as Saccharomyces cerevisiae)
chain: MPMDFQPTSSHSNWVVQKFGGTSVGKFPVQIVDDIVKHYSKPDGPNNNVAVVCSARSSYTKAEGTTSRLLKCCDLASQESEFQDIIEVIRQDHIDNADRFILNPALQAKLVDDTNKELELVKKYLNASKVLGEVSSRTVDLVMSCGEKLSCLFMTALCNDRGCKAKYVDLSHIVPSDFSASALDNSFYTFLVQALKEKLAPFVSAKERIVPVFTGFFGLVPTGLLNGVGRGYTDLCAALIAVAVNADELQVWKEVDGIFTADPRKVPEARLLDSVTPEEASELTYYGSEVIHPFTMEQVIRAKIPIRIKNVQNPLGNGTIIYPDNVAKKGESTPPHPPENLSSSFYEKRKRGATAITTKNDIFVINIHSNKKTLSHGFLAQIFTILDKYKLVVDLISTSEVHVSMALPIPDADSLKSLRQAEEKLRILGSVDITKKLSIVSLVGKHMKQYIGIAGTMFTTLAEEGINIEMISQGANEINISCVINESDSIKALQCIHAKLLSERTNTSNQFEHAIDERLEQLKRLGI
- Maximum activity on aspartate [4]: 1.6 μmol/(min*mgprot)
- Phosphorylation of malate as verified by the hydroxamate assay [5]: not able to phosphorylate malate

B6: YPR1: methylbutyraldehyde reductase from Saccharomyces cerevisiae (protein, listed as Saccharomyces cerevisiae)
chain: MPATLKNSSATLKLNTGASIPVLGFGTWRSVDNNGYHSVIAALKAGYRHIDAAAIYLNEEEVGRAIKDSGVPREEIFITTKLWGTEQRDPEAALNKSLKRLGLDYVDLYLMHWPVPLKTDRVTDGNVLCIPTLEDGTVDIDTKEWNFIKTWELMQELPKTGKTKAVGVSNFSINNIKELLESPNNKVVPATNQIEIHPLLPQDELIAFCKEKGIVVEAYSPFGSANAPLLKEQAIIDMAKKHGVEPAQLIISWSIQRGYVVLAKSVNPERIVSNFKIFTLPEDDFKTISNLSKVHGTKRVVDMKWGSFPIFQ
- Activity on malate semialdehyde (cofactor NADPH) [1, 6]: 0.19 μmol/(min*mg_prot)

B7: LysC: wild-type aspartate kinase III of E. coli encoded by the lysC gene (protein, listed as Escherichia coli)
chain: MSEIVVSKFGGTSVADFDAMNRSADIVLSDANVRLVVLSASAGITNLLVALAEGLEPGERFEKLDAIRNIQFAILERLRYPNVIREEIERLLENITVLAEAAALATSPALTDELVSHGELMSTLLFVEILRERDVQAQWFDVRKVMRTNDRFGRAEPDIAALAELAALQLLPRLNEGLVITQGFIGSENKGRTTTLGRGGSDYTAALLAEALHASRVDIWTDVPGIYTTDPRVVSAAKRIDEIAFAEAAEMATFGAKVLHPATLLPAVRSDIPVFVGSSKDPRAGGTLVCNKTENPPLFRALALRRNQTLLTLHSLNMLHSRGFLAEVFGILARHNISVDLITTSEVSVALTLDTTGSTSTGDTLLTQSLLMELSALCRVEVEEGLALVALIGNDLSKACGVGKEVFGVLEPFNIRMICYGASSHNLCFLVPGEDAEQVVQKLHSNLFE
- Maximum activity on aspartate [4]: 4.5 μmol/(min*mgprot)
- Phosphorylation of malate as verified by the hydroxamate assay [5]: not able to phosphorylate malate
